In patent US20030064916A1:

Biological target: HLA-A2.1 (human), A*02:0
Experiment: cell-based or functional assay

Substance: A2-specific monoclonal antibody PA2.1 (ATCC HB 117)
- Specific 51Cr release (%) by CTL A2 149, E:T 10, BT 549 targets, with anti-A2 (53 without): 37%
- Specific 51Cr release (%) by CTL A2 149, E:T 10, MCF7 targets, with anti-A2 (38 without): 13%
- Specific 51Cr release (%) by CTL A2 149, E:T 10, MDA 231 targets, with anti-A2 (24 without): 5%
- Specific 51Cr release (%) by CTL A2 149, E:T 10, Ramos A2.1 targets, with anti-A2 (39 without): 12%
- Specific 51Cr release (%) by CTL A2 149, E:T 10, SW 480 targets, with anti-A2 (55 without): 26%
- Specific 51Cr release (%) by CTL A2 264, E:T 10, BT 549 targets, with anti-A2 (79 without): 47%
- Specific 51Cr release (%) by CTL A2 264, E:T 10, MCF7 targets, with anti-A2 (79 without): 38%
- Specific 51Cr release (%) by CTL A2 264, E:T 10, MDA 231 targets, with anti-A2 (31 without): 10%
- Specific 51Cr release (%) by CTL A2 264, E:T 10, Ramos A2.1 targets, with anti-A2 (43 without): 0%
- Specific 51Cr release (%) by CTL A2 264, E:T 10, SW 480 targets, with anti-A2 (59 without): 17%
